The text below walks through data of paper PMC3968096, “Discovering Aptamers by Cell-SELEX against Human Soluble Growth Factors Ectopically Expressed on Yeast Cell Surface”.

This series has as its target VEGF165 (soluble) (human, UniProt P15692-4 27-191). Put plainly: F-EMSA; 1 mM Mg2+; 10 mM HEPES pH 7.9, 125 mM NaCl, 25 mM KCl, 1 mM MgCl2; F-EMSA at room temperature for 2 h, 5% PAGE at 4 C; flow cytometry in the same buffer. Particulars: protein: recombinant, chain copies: 2, label: 5' fluorescein (F-EMSA), 5' biotin (flow). Background: In EMSA bound probe runs differently from free probe, usually more slowly.

VEGF165 (soluble), sequence (P15692 other isoform, or with tags, fused parts or gaps): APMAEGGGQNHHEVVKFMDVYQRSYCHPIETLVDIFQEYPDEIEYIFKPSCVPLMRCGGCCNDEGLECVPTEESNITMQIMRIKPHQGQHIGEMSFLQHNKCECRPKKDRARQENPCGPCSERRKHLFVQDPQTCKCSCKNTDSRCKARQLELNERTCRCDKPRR

B1: hVap1_T1979 (structured_DNA)
DNA: TCTAGCCCACTGCATAGAGGTAGCCACGTATGTGGGTGTTACCCATTCGTAGCTACCGGTG
In general, Kd refers to the equilibrium constant for the complex coming apart. In the case of B1, the dissociation constant (Kd) (predicted stem-loops) was 1.7 ± 0.1 nM.

B2: hVap1_Stem (structured_DNA)
DNA: TCTAGCCCACTGCATAGAGGTAGCCACGTATGTTCGTGGCTACCGGTG
Take B2: the Kd (two predicted stem-loops) is 5.6 ± 0.3 nM.

B3: hVap1_SST (structured_DNA)
DNA: TCTAGCCCACTGCATAGAGGTAGCTACCGGTG
On to B3, for which, under “stem-loop plus shortened second stem-loop”, the Kd was determined as 2.5 ± 0.2 nM.
